Laboratory results reported in US20120045393A1 (priority 2009, published 2012).
Non-standard residues stand in square brackets, D forms with d. Bpa = N[C@@H](Cc1ccc(C(=O)c2ccccc2)cc1)C(=O)O; d1Nal = N[C@H](Cc1cccc2ccccc12)C(=O)O; d2Nal = N[C@H](Cc1ccc2ccccc2c1)C(=O)O; d3Pal = N[C@H](Cc1cccnc1)C(=O)O; His(1-Me) = 1-methylhistidine; DO3A10CM = not defined here; Bzgly = not defined here; dCfe4 = not defined here; Afe4 = not defined here; azaGly = NNC(=O)O; Sar = CNCC(=O)O

B1: ^177Lu-BRU-2738 (peptide)
peptide: XFWSHXWXPX
modifications: 177Lu held by the N-terminal DO3A10CM: 177Lu-DO3A10CM-Sar-Phe-Trp-Ser-His-Darg-Trp-Bpa4-Pro-azaGly-NH2
B2: ^177Lu-BRU-2644 (peptide)
peptide: DO3A10CM-G[d2Nal][dCfe4][d3Pal]SH[dR]WYP[dA]-NH2
modifications: reading uncertain; also: 177Lu complexed by DO3A10CM, printed as 177Lu-DO3A10CM-Gly-Dnal2-Dcfe4-Dpal3-Ser-His-Darg-Trp-Tyr-Pro-Dala-NH2
B3: ^177Lu-BRU-2725 (peptide)
peptide: XHWSHXWXPX
modifications: 177Lu held by the N-terminal DO3A10CM: 177Lu-DO3A10CM-Sar-His-Trp-Ser-His-Darg-Trp-Cfe4-Pro-azaGly-NH2
B4: ^177Lu-BRU-2696 (peptide)
peptide: XXHWSHXWXPX
modifications: 177Lu held by the N-terminal DO3A10CM: 177Lu-DO3A10CM-Gly-Abz4-Sar-His-Trp-Ser-His-Darg-Trp-Bpa4-Pro-azaGly-NH2
B5: ^177Lu-BRU-2823 (peptide)
peptide: XHWSHXWXPX
modifications: 177Lu held by the N-terminal DO3A10CM: 177Lu-DO3A10CM-Sar-His-Trp-Ser-His-Darg-Trp-Thy-Pro-azaGly-NH2
B6: ^177Lu-BRU-2721 (peptide)
peptide: XHWSHXWXPX
modifications: 177Lu held by the N-terminal DO3A10CM: 177Lu-DO3A10CM-Sar-His-Trp-Ser-His-Darg-Trp-Dip-Pro-azaGly-NH2
B7: ^177Lu-BRU-2742 (peptide)
peptide: XHWSHXWXPX
modifications: 177Lu held by the N-terminal DO3A10CM: 177Lu-DO3A10CM-Sar-His-Trp-Ser-His-Darg-Trp-Tha-Pro-azaGly-NH2
B8: ^177Lu-BRU-2869 (peptide)
peptide: XHWSHXWXPX
modifications: 177Lu held by the N-terminal DO3A10CM: 177Lu-DO3A10CM-Dnal1-His-Trp-Ser-His-Darg-Trp-Bpa4-Pro-azaGly-NH2
B9: ^177Lu-BRU-2810 (peptide)
peptide: XHWSHXWXPX
modifications: 177Lu held by the N-terminal DO3A10CM: 177Lu-DO3A10CM-Dafe4-His-Trp-Ser-His-Darg-Trp-Bpa4-Pro-azaGly-NH2
B10: ^177Lu-BRU-2812 (peptide)
peptide: DO3A10CM-[d2Nal][Afe4]WSH[dR]W[Bpa]P[azaGly]-NH2
modifications: reading uncertain; also: 177Lu held by N-terminal DO3A10CM, printed as 177Lu-DO3A10CM-Dnal2-Afe4-Trp-Ser-His-Darg-Trp-Bpa4-Pro-azaGly-NH2
B11: ^177Lu-BRU-2792 (peptide)
peptide: DO3A10CM-G[Bzgly]HWSH[dR]W[Bpa]P[azaGly]-NH2
modifications: reading uncertain; also: 177Lu complexed by DO3A10CM, printed as 177Lu-DO3A10CM-Gly-Bzgly-His-Trp-Ser-His-Darg-Trp-Bpa4-Pro-azaGly-NH2
B12: ^177Lu-BRU-2443 (peptide)
peptide: XHWSHXWXPX
modifications: 177Lu held by the N-terminal DO3A10CM: 177Lu-DO3A10CM-Sar-His-Trp-Ser-His-Darg-Trp-Bpa4-Pro-azaGly-NH2
B13: ^177Lu-BRU-2440 (peptide)
peptide: DO3A10CM-[Sar]HWSH[dR]WYP[azaGly]-NH2
modifications: reading uncertain; also: 177Lu complexed by DO3A10CM, printed as 177Lu-DO3A10CM-Sar-His-Trp-Ser-His-Darg-Trp-Tyr-Pro-azaGly-NH2
B14: ^177Lu-BRU-2741 (peptide)
peptide: DO3A10CM-[Sar][His(1-Me)]WSH[dR]W[Bpa]P[azaGly]-NH2
modifications: reading uncertain; also: 177Lu complexed by DO3A10CM, printed as 177Lu-DO3A10CM-Sar-His(1-Me)-Trp-Ser-His-Darg-Trp-Bpa4-Pro-azaGly-NH2
B15: ^177Lu-BRU-2894 (peptide)
peptide: XHWSHXWXPX
modifications: 177Lu held by the N-terminal DO3A10CM: 177Lu-DO3A10CM-Dphe-His-Trp-Ser-His-Darg-Trp-Bpa4-Pro-azaGly-NH2
B16: ^177Lu-BRU-2767 (peptide)
peptide: DO3A10CM-[Sar]HWSH[dR]WP[azaGly]-NH2
modifications: reading uncertain; also: 177Lu complexed by DO3A10CM, printed as 177Lu-DO3A10CM-Sar-His-Trp-Ser-His-Darg-Trp-azaG-NH2
B17: ^177Lu-BRU-2896 (peptide)
peptide: XHWSHXWXPX
modifications: 177Lu held by the N-terminal DO3A10CM: 177Lu-DO3A10CM-Adoa-Adoa-Sar-His-Trp-Ser-His-Darg-Trp-Bpa4-Pro-azaGly-NH2
B18: ^177Lu-BRU-2736 (peptide)
peptide: XHWSHXWXPX
modifications: 177Lu held by the N-terminal DO3A10CM: 177Lu-DO3A10CM-Meala-His-Trp-Ser-His-Darg-Trp-Bpa4-Pro-azaGly-NH2
B19: ^177Lu-BRU-2624 (peptide)
peptide: XHWSHXWXPX
modifications: 177Lu held by the N-terminal DO3A10CM: 177Lu-DO3A10CM-Sar-His-Trp-Ser-His-Darg-Trp-Nal2-Pro-azaGly-NH2
B20: ^177Lu-BRU-2722 (peptide)
peptide: XHWSHXWXPX
modifications: 177Lu held by the N-terminal DO3A10CM: 177Lu-DO3A10CM-Sar-His-Trp-Ser-His-Darg-Trp-F5fe-Pro-azaGly-NH2
B21: ^177Lu-BRU-2766 (peptide)
peptide: DO3A10CM-G[d1Nal]HWSH[dR]W[Bpa]P[azaGly]-NH2
modifications: reading uncertain; also: 177Lu complexed by DO3A10CM, printed as 177Lu-DO3A10CM-Gly-Dnal1-His-Trp-Ser-His-Darg-Trp-Bpa4-Pro-azaGly-NH2

biological target: LHRH receptor (LHRH binding sites) on EFO-27 human ovarian cancer cells (human); test: direct binding of 177Lu-labeled peptide to EFO-27 cells, single concentration

% Bound [%] | Binder
1.41 | B1
2.13 | B2
0.41 | B3
0.94 | B4
1 | B5
0.79 | B6
0.125 | B7
9.2 | B8
2.4 | B9
5.8 | B10
1.28 | B11
1.8 | B12
0.21 | B13
1.35 | B14
3.4 | B15
1.06 | B16
0.7 | B17
1.62 | B18
4.03 | B19
0.36 | B20
10.3 | B21
